Source: patent publication US20110112172

Columns and labels:
[1] = target: human SDF-1 alpha (CXCL12) (Homo sapiens) (UniProt P48061); assay: SPR; conditions: L-RNA, 37 C
[2] = target: biotinylated human D-SDF-1 (mirror-image CXCL12) (Homo sapiens) (UniProt P48061); assay: pulldown; conditions: 37 C
Chain of biotinylated human D-SDF-1 (mirror-image CXCL12) (Homo sapiens) (P48061 22-92): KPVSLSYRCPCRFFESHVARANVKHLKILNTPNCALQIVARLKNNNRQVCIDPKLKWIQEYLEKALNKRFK

Chain of human SDF-1 alpha (CXCL12) (Homo sapiens) (P48061 22-89): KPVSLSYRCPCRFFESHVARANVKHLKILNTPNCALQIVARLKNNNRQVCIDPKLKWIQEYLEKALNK

In the case of “GAGAUAGGGGUUAGGGCUUAAAGUCGGCUGAUUCUC [190-A3-004 Spiegelmer]”, the Kd [1] is reported as 4.7 nM.

“GCGUGGUGUGAUCUAGAUGUAUUGGCUGAUCCUAGUCAGGUACGC [193-G2-012 aptamer (D)]” showed a Kd [2] of 0.3 nM.

For “GCUGUGAAAGCAACAUGUCAAUGAAAGGUAGCCGCAGC [192-A10-001 Spiegelmer]”, the Kd ([1]; 1 mM Mg, 1 mM Ca) was 1 nM.

“AGCGUGGUGUGAUCUAGAUGUAUUGGCUGAUCCUAGUCAGGUACGCU [193-G2-001 Spiegelmer]” was tested, and the Kd [1] was 0.5 nM.

Work on “AGCGUGGUGUGAUCUAGAUGUAUUGGCUGAUCCUAGUCAGGUACGCU [193-G2-001 aptamer (D)]” yielded a Kd ([2]; better than 192-A10-001 in competition) of 0.3 nM.

Sequence “CGGGAGGUUAGGGCUAGAAGUCGGUCCCG [191-D5-007 Spiegelmer]” has a Kd [1] of 0.8 nM.

For “GUGCUGCGGGGGUUAGGGCUAGAAGUCGGCCUGCAGCAC [197-B2 Spiegelmer]”, the Kd [1] was 0.9 nM.

“CGGGAGGUUAGGGCUAGAAGUCGGUCCCG [191-D5-007 aptamer (D)]” showed a Kd ([2]; somewhat better than 191-D5-001 in competition) of 2.2 nM.

Work on “GCUGUGAAAGCAACAUGUCAAUGAAAGGUAGCCGCAGC [192-A10-001 aptamer (D)]” yielded a Kd ([2]; 1 mM Mg, 1 mM Ca, pH 7.4) of 1.5 nM.

For “GAGAUAGGGGUUAGGGCUUAAAGUCGGCUGAUUCUC [190-A3-004 aptamer (D)]”, the Kd ([2]; same affinity as 190-A3-001) was 4.6 nM.

“AGCGUGGCGAGGUUAGGGCUAGAAGUCGGUCGACACGCU [191-D5-001 Spiegelmer]” was tested, and the Kd ([1]; FIG. 21 cited here is labelled 191-D5-007) was 0.8 nM.
